This sample holds only a part of the variants without activity.
B1: TPR 5TU (parent)
chain: GGAUCUUCUCGAUCUAACAAAAAAGACAAAUCUGCCACAAAGCUUGAGAGCAUCUUCGGAUGCAGAGGCGGCAGCCUUCGGUGGCGCGAUAGCGCCAACGUUCUCAACUAUGACACGCAAAACGCGUGCUCCGUUGAAUGGAGUUUAUCAUG

Variants of: B1
Test: polymerase ribozyme fitness, log enrichment relative to wild type (log ratio); higher = more active; in vitro selection for triplet polymerase activity
Method in brief: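 Streptavidin-bead capture of gel-excised extended constructs, followed by RT-PCR, closed a single triplicate in vitro selection round. That round began by annealing PCR-built, transcribed mutant libraries of each subunit of a heterodimeric triplet polymerase ribozyme with a biotinylated primer, the partner subunit and triplets, then incubating them frozen at −7 °C. After Illumina sequencing of inputs and outputs, genotypes needed ≥10 input reads and ≥1 read per output. Fitness is the base-2 logarithm of genotype enrichment over wild-type enrichment, using inverse-variance-weighted replicate averages.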

Variant	polymerase ribozyme fitness (log ratio)
A23G G50C G84U C85G A150C	-3.98
A24G C75A A113U	≤ -4.2
A23U G46U C87U G88U A119G A120C G133U	≤ -4.2
A23C A49G C93U U148C	≤ -4.2
A23C C27U A30G C93G U101A U104G A107U	≤ -4.2
A23G A52C A98U	-3.98
A24C A73C G86U C96A	≤ -4.2
A24C G34A C87A G126U	-4.18
A23G U56A C63A C85U C93U	≤ -4.2
A23G G46A U56A C87A G141C	≤ -4.2
A24G A73G G86A G141U U145A A150U	≤ -4.2
A23C A24U C57U G58A U61A C93G C103U C118U	≤ -4.2
A23C U31G C108G A115G	≤ -4.2
A24C	-3.22
A24G	-1.75
A23U A26U C27U A41U C93U C95A	≤ -4.2
A24G A30U U31C U101G	-3.98
A23C A29U G68C U82G G133U U134A A138U	≤ -4.2
A23C A41C C75A G84A A115U G152A	≤ -4.2
A24G A52C C85U C96U C105U A120U G136A	≤ -4.2
A24G C57U	-3.7

Variant	polymerase ribozyme fitness (log ratio)
A23C G46C A47G G84U C87A C93U U109G	≤ -4.2
A23U U53A C96A C114G G143A U146G	≤ -4.2
A22U U148A	-2.76
A22U G59A	-0.47
A23G C87U	-3.14
A24G C87A	≤ -4.2
A24C G67A G81C G88A	≤ -4.2
A24C C95A C96G U144C	≤ -4.2
A23G A41U C76G G80A A89U G124U	≤ -4.2
A23U C38U G59C C95A U151G	≤ -4.2
A24C A73G G83C G143U	≤ -4.2
A22U U56A A64G A122U C123G A150G	≤ -4.2
A22U G92A C95A C105U	-3.63
A23G G92U	-3.31
A24C A73U C79U G88U G126A	≤ -4.2
A23C C76U C87A	≤ -4.2
A23G C57U	-2.27
A23C C36U A60C G86A A121U	≤ -4.2
A23G C54A U55G G58A G59C	-4.08
A23C G88U U144G	≤ -4.2
A23C A37G U53A A66G G88U U130A U146A	≤ -4.2

Variant	polymerase ribozyme fitness (log ratio)
A23C C43A C54U A73U C99G	≤ -4.2
A23U C125A	-3.51
A23U U45C A66G C85U	≤ -4.2
A23G C38U U61A	≤ -4.2
A24G C93U	-3.49
A23U C85U A91G G126C G140U	≤ -4.2
A23U U55A C57U G68U A73G G80C G94U U104C	≤ -4.2
A24G A30G A47U A52C A60C C76A G100A C114A C118G G140A	≤ -4.2
A23U G25C A52C U55A A122C	≤ -4.2
A24C A49C A52C A64U C69A U82G C108U U130A U139G	≤ -4.2
A22U U45A G68A A122G G140U U146A	≤ -4.2
A24C G42C G92U C125G	≤ -4.2
A23G C35A A142G	-3.78
A23G U44A U61A G70U C76G C93G G143C	≤ -4.2
A23C A29C C38U C57G A64C G84U	≤ -4.2
A23U C85U	-3.33
A24C U61A C63G G81A G94A	≤ -4.2
A24C C32G C43G C87G U104G A115C	≤ -4.2
A23G A64G G81A C108A G124U G143U	≤ -4.2
A24C G62C G86U U102C	≤ -4.2
A23U G84A	-3.32

Variant	polymerase ribozyme fitness (log ratio)
A23C U31C C99U C123U U134C	≤ -4.2
A22U U55A	-0.43
A23C C32U A64G G81A C87G C95U C96A A97G A138C G141U	≤ -4.2
A23U C43U G59C A60G G94C	≤ -4.2
A24G C54A	-3.54
A24C C27G A29U C57U G86C C103A	≤ -4.2
A23C C93A	-3.87
A22U G88C A147C	-4.19
A22U U55A A115C C123U U130G	-2.84
A23U G59U C93U	≤ -4.2
A22U G86C	-3.34
A24C C51U C105G	≤ -4.2
A22U G86U A120U	-1.56
A24C G67C G92U C99U U109G A110U	≤ -4.2
A24C A49C G84A A97C U130G A137U	≤ -4.2
A22U U31C G81C A89C	1.01
A23U U44A U45A A66U C95U A120G	≤ -4.2
A24C C54A A60G A73U U77G	≤ -4.2
A23G C114U	-3.53
A23U C35G A73U G81A U109G	≤ -4.2
A23G C36U G50U G100A A107G C118G	≤ -4.2

From the RNAGym collection of RNA variant scans (doi:10.1073/pnas.2313332121)
